How the values were obtained:
[1] = target: H3N2 pseudotyped lentiviral particles (H3 from A/Denmark/70/03, N2 from A/Texas/50/2012) (influenza A virus H3N2 A/Denmark/70/03; influenza A virus H3N2 A/Texas/50/2012); experiment: cell-based or functional assay
[2] = target: H1N1 pseudotyped lentiviral particles (H1 and N1 from swine H1N1 A/California/04/09) (influenza A virus H1N1 A/California/04/09); experiment: cell-based or functional assay

B1: human complement factor H purified from human plasma, P08603 19-1231 (protein)
chain: EDCNELPPRRNTEILTGSWSDQTYPEGTQAIYKCRPGYRSLGNVIMVCRKGEWVALNPLRKCQKRPCGHPGDTPFGTFTLTGGNVFEYGVKAVYTCNEGYQLLGEINYRECDTDGWTNDIPICEVVKCLPVTAPENGKIVSSAMEPDREYHFGQAVRFVCNSGYKIEGDEEMHCSDDGFWSKEKPKCVEISCKSPDVINGSPISQKIIYKENERFQYKCNMGYEYSERGDAVCTESGWRPLPSCEEKSCDNPYIPNGDYSPLRIKHRTGDEITYQCRNGFYPATRGNTAKCTSTGWIPAPRCTLKPCDYPDIKHGGLYHENMRRPYFPVAVGKYYSYYCDEHFETPSGSYWDHIHCTQDGWSPAVPCLRKCYFPYLENGYNQNYGRKFVQGKSIDVACHPGYALPKAQTTVTCMENGWSPTPRCIRVKTCSKSSIDIENGFISESQYTYALKEKAKYQCKLGYVTADGETSGSITCGKDGWSAQPTCIKSCDIPVFMNARTKNDFTWFKLNDTLDYECHDGYESNTGSTTGSIVCGYNGWSDLPICYERECELPKIDVHLVPDRKKDQYKVGEVLKFSCKPGFTIVGPNSVQCYHFGLSPDLPICKEQVQSCGPPPELLNGNVKEKTKEEYGHSEVVEYYCNPRFLMKGPNKIQCVDGEWTTLPVCIVEESTCGDIPELEHGWAQLSSPPYYYGDSVEFNCSESFTMIGHRSITCIHGVWTQLPQCVAIDKLKKCKSSNLIILEEHLKNKKEFDHNSNIRYRCRGKEGWIHTVCINGRWDPEVNCSMAQIQLCPPPPQIPNSHNMTTTLNYRDGEKVSVLCQENYLIQEGEEITCKDGRWQSIPLCVEKIPCSQPPQIEHGTINSSRSSQESYAHGTKLSYTCEGGFRISEENETTCYMGKWSSPPQCEGLPCKSPPEISHGVVAHMSDSYQYGEEVTYKCFEGFGIDGPAIAKCLGEKWSHPPSCIKTDCLSLPSFENAIPMGEKKDVYKAGEQVTYTCATYYKMDGASNVTCINSRWTGRPTCRDTSCVNPPTVQNAYIVSRQMSKYPSGERVRYQCRSPYEMFGDEEVMCLNGNWTEPPQCKDSTGKCGPPPPIDNGDITSFPLSVYAPASSVEYQCQNLYQLEGNKRITCRNGQWSEPPKCLHPCVISREIMENYNIALRWTAKQKLYSRTGESVEFVCKRGYRLSSRSHTLRTTCWDGKLEYPTCAKR
luciferase reporter activity of transduced MDCK cells, 40 µg/ml protein [1]: 50 % increase | luciferase reporter activity of transduced MDCK cells, 40 µg/ml protein [2]: 25 % reduction
